Numbering of substitutions follows the chain as printed. Names and notes keep the numbering of the source.

In experiment [1] the target is T1, Fusion protein of CD38 extracellular domain with His tag: CD38-ECD-His (human, UniProt P28907 43-300). Briefly: cell-based or functional assay.
Experiment [2] concerns the target T2, full-length human CD38 on CHO-S cells (CD38-FL-CHOS) (human, UniProt P28907 1-300).
T2 construct: whole, on cells; also called natural CD38 present on the cell surface
The experiment in a line: flow cytometry on CD38-FL-CHO-S cells. In general terms: Flow cytometry measures light scatter and fluorescence of single cells or particles in a stream.

Experiment [3] addresses T1, Fusion protein of CD38 extracellular …. The experiment in a line: ELISA, biotin-labeled CD38-ECD-His on streptavidin-coated plate. (In general: An ELISA detects its analyte on a solid surface through an enzyme-linked reagent.)
Experimental: The affinity of the anti-CD38 antibodies were determined by the amount of the antibodies binding to CD38 immobilized on the ELISA plate. […] The plate was washed again and tetramethyl benzidine solution was added for color reaction. Finally, stop solution was added. OD450 was measured on a microplate reader and EC50 value was calculated.
Experiment [4] has the same target. The experiment in a line: SPR (Biacore), antibody captured as ligand, Human CD38-His as analyte. On the technique in general: SPR reads the build-up and loss of mass on a sensor chip optically.
Experimental: (§1) Then the human CD38-ECD-His antigen passed through the surface of the chip, and a real-time detection for the reaction signal was performed with Biacore instrument. The resulting binding and dissociation curves were fitted to calculate the affinity values. After the dissociation of each cycle was completed in the experiment, the biochip was washed and regenerated with the regeneration solution supplied in the Human Fc Capture Kit (GE).
The target is the same in experiment [5]. Briefly: SPR (Biacore), antibody captured by anti-human Fc, CD38-ECD-His as analyte.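 Also: human CD38-ECD-His flowed over the captured antibody with the signal tracked in real time, and association and dissociation curves were fitted to derive the affinity values.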
Experimental: as §1

B1: hu9E (antibody, human IgG1, kappa)
heavy: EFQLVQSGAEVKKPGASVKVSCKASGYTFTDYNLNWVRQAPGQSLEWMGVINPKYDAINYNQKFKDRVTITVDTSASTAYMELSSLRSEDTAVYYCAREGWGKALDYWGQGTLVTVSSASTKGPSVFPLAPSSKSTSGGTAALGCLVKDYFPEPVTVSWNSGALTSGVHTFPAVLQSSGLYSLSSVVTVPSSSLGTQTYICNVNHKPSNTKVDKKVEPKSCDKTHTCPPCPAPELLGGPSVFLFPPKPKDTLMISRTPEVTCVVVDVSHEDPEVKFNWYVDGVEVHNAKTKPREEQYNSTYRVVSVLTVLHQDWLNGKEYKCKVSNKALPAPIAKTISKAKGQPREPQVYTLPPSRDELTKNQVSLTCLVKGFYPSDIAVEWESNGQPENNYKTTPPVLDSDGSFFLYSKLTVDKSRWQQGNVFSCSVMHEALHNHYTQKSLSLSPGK
light: EIVLTQSPATLSLSPGERATLSCRASQSIYTNLHWYQQKPGQSPRLLIKYASQSISGIPARFSGSGSGTDFTLTISSLEPEDFAVYYCQQSNSWPLTFGGGTKVEIKRTVAAPSVFIFPPSDEQLKSGTASVVCLLNNFYPREAKVQWKVDNALQSGNSQESVTEQDSKDSTYSLSSTLTLSKADYEKHKVYACEVTHQGLSSPVTKSFNRGEC
notes: Humanized, human IgG1-E333A / kappa; also called h009-07E
For B1, in experiment [1], the “IC50 (µg/ml), inhibition of CD38 enzyme activity (cGDPR production from NGD)” value (“IC50 (µg/ml), inhibition” for short) turned out to be 1.56 µg/mL and the “Imax (Maximum inhibition rate %)” value was found to be 89.6%. A half-maximal response in experiment [2] (EC50) required 0.402 µg/mL. Besides, the concentration giving a half-maximal response (EC50) (commonly the midpoint of the concentration-response curve) in experiment [3] came out at 0.0259 µg/mL. Further, in experiment [4], binding was put at a Kd of 1.31 nM; the koff (as a rule, the rate constant with which the complex falls apart) came to 0.00138 s⁻¹; the kon – broadly, the rate constant with which the complex forms – was determined as 1.05e+06 M⁻¹ s⁻¹.

B2: ch-160 (antibody, human IgG1, V domains shown)
VH: EVQLVESGGGLVKPGGSLKLSCVASGFTFSDYGMHWVRQAPEKGLEWIAFISTGSSNIYYVDKVKGRFTISRDNAKNTLFLQMTSLRSEDTAMYYCARNYVSSYGYFDYWGQGTTLTVSS
VL: DIVLTQSPASLAVSLGQRATVSCRASESVDNYGISFMHWYQQKPGQPPKLLIYRASNLESGIPARFSGSGSRTDFTLTINPVETDDVATYYCQQTNKDPLTFGGGTKLELK
notes: also called chimeric antibody of hybridoma clone m160
In the case of B2, in experiment [5], the Kd (in general, the equilibrium constant for the complex coming apart) worked out at 0.062 nM; the koff turned out to be 0.00017 s⁻¹; the on-rate (kon) stood at 2.74e+06 M⁻¹ s⁻¹.

B3: hu11E (antibody, human IgG1, kappa)
heavy: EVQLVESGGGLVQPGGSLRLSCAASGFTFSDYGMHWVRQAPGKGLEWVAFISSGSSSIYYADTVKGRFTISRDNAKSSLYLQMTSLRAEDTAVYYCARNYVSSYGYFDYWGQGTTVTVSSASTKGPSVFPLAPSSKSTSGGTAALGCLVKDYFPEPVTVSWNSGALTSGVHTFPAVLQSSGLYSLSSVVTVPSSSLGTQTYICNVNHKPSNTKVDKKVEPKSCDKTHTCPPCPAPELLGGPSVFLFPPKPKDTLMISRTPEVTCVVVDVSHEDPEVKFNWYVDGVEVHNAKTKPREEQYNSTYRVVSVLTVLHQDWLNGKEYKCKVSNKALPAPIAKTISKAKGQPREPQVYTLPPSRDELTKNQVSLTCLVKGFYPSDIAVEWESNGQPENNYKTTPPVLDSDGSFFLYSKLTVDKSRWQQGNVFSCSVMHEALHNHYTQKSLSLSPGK
light: DIVMTQSPDSLAVSLGERATINCRASENVDNYGISFMHWYQQKPGQPPKLLIYRASNLESGVPDRFSGSGSGTDFTLTISSLQAEDVAVYYCQQSNKDPLTFGGGTKVEIKRTVAAPSVFIFPPSDEQLKSGTASVVCLLNNFYPREAKVQWKVDNALQSGNSQESVTEQDSKDSTYSLSSTLTLSKADYEKHKVYACEVTHQGLSSPVTKSFNRGEC
notes: Humanized, human IgG1-E333A / kappa; also called h011-01E
For B3, in experiment [1], the “IC50 (µg/ml), inhibition” value is 1.83 µg/mL and the “Imax (Maximum inhibition rate %)” value stood at 44.3%. The EC50 in experiment [2] worked out at 0.481 µg/mL. The EC50 in experiment [3] is 0.0276 µg/mL. In experiment [4], this molecule displayed a Kd of 0.568 nM, a koff of 0.00117 s⁻¹ and a kon of 2.07e+06 M⁻¹ s⁻¹.

B4: hu160E (antibody, human IgG1, kappa)
heavy: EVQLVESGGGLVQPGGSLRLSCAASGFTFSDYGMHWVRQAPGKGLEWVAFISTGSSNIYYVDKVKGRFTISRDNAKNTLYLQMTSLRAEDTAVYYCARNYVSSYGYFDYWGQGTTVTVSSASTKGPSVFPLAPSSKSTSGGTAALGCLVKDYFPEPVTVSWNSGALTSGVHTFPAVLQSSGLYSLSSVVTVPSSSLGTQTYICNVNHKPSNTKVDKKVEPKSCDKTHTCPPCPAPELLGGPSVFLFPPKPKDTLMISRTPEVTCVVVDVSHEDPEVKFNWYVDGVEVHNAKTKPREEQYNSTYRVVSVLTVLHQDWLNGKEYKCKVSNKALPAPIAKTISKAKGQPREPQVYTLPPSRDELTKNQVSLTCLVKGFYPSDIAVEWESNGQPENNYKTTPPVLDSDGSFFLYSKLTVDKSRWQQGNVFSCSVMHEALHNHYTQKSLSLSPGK
light: B3 light with D9A, N28S, S95T
notes: Humanized, human IgG1-E333A / kappa; also called h160-01E
As to B4, in experiment [1], the “IC50 (µg/ml), inhibition” value came out at 1.2 µg/mL and the “Imax (Maximum inhibition rate %)” value was found to be 47.7%. Moreover, a half-maximal response in experiment [2] (EC50) required 0.474 µg/mL. For the same molecule, in experiment [3], the EC50 was determined as 0.028 µg/mL. In experiment [4], this molecule came in with a Kd of 0.0585 nM, a koff of 0.000115 s⁻¹ and a kon of 1.96e+06 M⁻¹ s⁻¹.

The record behind these values is US20220275100A1 (JIANGSU HENGRUI MEDICINE, published 2022).
